Laboratory results reported in the supplement of paper PMC10724198.
± gives the standard deviation of the averaged measurements.

Test system: Saccharomyces cerevisiae
Assay: protein stability index of tFT-peptide fusion (C-terminal peptide) (PSI (0-1 scale)); higher = more stable (slower turnover)
Details: temperature: 30 C
Description: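 MPS profiling in S. cerevisiae of the yeast C-terminome library: the last 12 aa of each annotated ORF are fused to the C-terminus of a sfGFP-mCherry timer, after a GGGS linker. Cells are FACS-sorted into 8 mCherry/sfGFP bins and deep-sequenced. PSI runs from 0 (unstable) to 1 (stable); wild type and das1Δ backgrounds, two technical replicates each.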

[1] = genetic background: das1 deletion

NTGFDPHLEDGM [TBF1 C-terminal 12 aa] was tested, and the protein stability index [1] was 0.708 ± 0.032 and the protein stability index (genetic background: wild type) was 0.691 ± 0.039.
NTKHYNDTLLKQ [PHO11 C-terminal 12 aa] gave a protein stability index [1] of 0.718 ± 0.0081 and a protein stability index (genetic background: wild type) of 0.66 ± 0.0066.
NTTRYNASLVNQ [DIA3 C-terminal 12 aa] was tested, and the protein stability index [1] was 0.741 ± 0.031 and the protein stability index (genetic background: wild type) was 0.712 ± 0.044.
Work on NVIIQDKTKKTQ [MCD4 C-terminal 12 aa] yielded a protein stability index [1] of 0.733 ± 0.028 and a protein stability index (genetic background: wild type) of 0.671 ± 0.011.
Work on NVKSSTQEKDSK [SGN1 C-terminal 12 aa] yielded a protein stability index [1] of 0.706 ± 0.014 and a protein stability index (genetic background: wild type) of 0.721 ± 0.053.
For NYEDLATTQAAS [BRN1 C-terminal 12 aa], the protein stability index [1] was 0.722 ± 0.011 and the protein stability index (genetic background: wild type) was 0.68 ± 0.013.
Sequence NYQKNEPVEFLE [MIN9 C-terminal 12 aa] has a protein stability index [1] of 0.711 ± 0.0097 and a protein stability index (genetic background: wild type) of 0.656 ± 0.026.
PDVLRKLSHQNV [PNS1 C-terminal 12 aa] gave a protein stability index [1] of 0.713 ± 0.0075 and a protein stability index (genetic background: wild type) of 0.666 ± 0.025.
PENGSLFEFDDN [SNU66 C-terminal 12 aa] showed a protein stability index [1] of 0.6962 ± 0.005 and a protein stability index (genetic background: wild type) of 0.6836 ± 0.0039.
In the case of PFALPSNDKVFF [ATO2 C-terminal 12 aa], the protein stability index [1] is reported as 0.698 ± 0.027 and the protein stability index (genetic background: wild type) is reported as 0.731 ± 0.0052.
PFIFKTLEEQGL [CCP1 C-terminal 12 aa] was tested, and the protein stability index [1] was 0.743 ± 0.06 and the protein stability index (genetic background: wild type) was 0.691 ± 0.065.
PFLEKLTLSGLL [CDC45 C-terminal 12 aa] was tested, and the protein stability index [1] was 0.714 ± 0.0059 and the protein stability index (genetic background: wild type) was 0.694 ± 0.0088.
With PFPQKHRDNHLV [YOR053W C-terminal 12 aa] the protein stability index [1] was 0.701 ± 0.025 and the protein stability index (genetic background: wild type) was 0.711 ± 0.012.
Sequence PGPISFLPVIPI [YLR402W C-terminal 12 aa] has a protein stability index [1] of 0.7092 ± 0.0061 and a protein stability index (genetic background: wild type) of 0.744 ± 0.12.
PHEAALPKPSFV [EDC2 C-terminal 12 aa] gave a protein stability index [1] of 0.7069 ± 0.0042 and a protein stability index (genetic background: wild type) of 0.719 ± 0.038.
Work on PHSQNEILQYYL [NAT1 C-terminal 12 aa] yielded a protein stability index [1] of 0.705 ± 0.0095 and a protein stability index (genetic background: wild type) of 0.722 ± 0.065.
In the case of PHYKPRDGSQVE [SPT4 C-terminal 12 aa], the protein stability index [1] is reported as 0.69 ± 0.011 and the protein stability index (genetic background: wild type) is reported as 0.65 ± 0.0097.
PICIVGNFIPLS [RDS2 C-terminal 12 aa] was tested, and the protein stability index [1] was 0.689 ± 0.024 and the protein stability index (genetic background: wild type) was 0.722 ± 0.024.
For PICKLLEEEERG [ALG11 C-terminal 12 aa], the protein stability index [1] was 0.7 ± 0.011 and the protein stability index (genetic background: wild type) was 0.699 ± 0.041.
PINDRKYPNQCH [SPR1 C-terminal 12 aa] gave a protein stability index [1] of 0.715 ± 0.028 and a protein stability index (genetic background: wild type) of 0.6948 ± 0.0011.
Sequence PIQQSIAHINPP [LDS2 C-terminal 12 aa] has a protein stability index [1] of 0.718 ± 0.0075 and a protein stability index (genetic background: wild type) of 0.6902 ± 0.0066.
PKDLTSLLEWKE [CLA4 C-terminal 12 aa] showed a protein stability index [1] of 0.7005 ± 0.006 and a protein stability index (genetic background: wild type) of 0.681 ± 0.044.
PLSKMEDQVFVF [CBR1 C-terminal 12 aa] showed a protein stability index [1] of 0.663 ± 0.036 and a protein stability index (genetic background: wild type) of 0.657 ± 0.027.
Work on PQFKYRADFLII [APE3 C-terminal 12 aa] yielded a protein stability index [1] of 0.664 ± 0.011 and a protein stability index (genetic background: wild type) of 0.676 ± 0.037.
For PQRTKIQAFNTL [MRP1 C-terminal 12 aa], the protein stability index [1] was 0.70194 ± 0.0001 and the protein stability index (genetic background: wild type) was 0.675 ± 0.029.
PRGQDTEDHILE [PIF1 C-terminal 12 aa] gave a protein stability index [1] of 0.725 ± 0.02 and a protein stability index (genetic background: wild type) of 0.692 ± 0.0098.
Sequence PRLKAKKKVTKP [TFB4 C-terminal 12 aa] has a protein stability index [1] of 0.6873 ± 0.003 and a protein stability index (genetic background: wild type) of 0.67 ± 0.012.
With PSENFATKAKLP [YDR187C C-terminal 12 aa] the protein stability index [1] was 0.7507 ± 0.0029 and the protein stability index (genetic background: wild type) was 0.71 ± 0.025.
In the case of PSIQHDYTMEGW [ATG3 C-terminal 12 aa], the protein stability index [1] is reported as 0.72275 ± 0.00032 and the protein stability index (genetic background: wild type) is reported as 0.6562 ± 0.0032.
PSPYYVSEVPVS [Q0010 C-terminal 12 aa] was tested, and the protein stability index [1] was 0.6371 ± 0.0047 and the protein stability index (genetic background: wild type) was 0.6238 ± 0.0025.
PSSEEDILHDEL [LHS1 C-terminal 12 aa] gave a protein stability index [1] of 0.68 ± 0.046 and a protein stability index (genetic background: wild type) of 0.692 ± 0.034.
Sequence PSVSRKTPDYFL [PPH21 C-terminal 12 aa] has a protein stability index [1] of 0.701 ± 0.053 and a protein stability index (genetic background: wild type) of 0.7 ± 0.032.
PSYEMRYNKNER [YBL065W C-terminal 12 aa] gave a protein stability index [1] of 0.7137 ± 0.0027 and a protein stability index (genetic background: wild type) of 0.715 ± 0.0081.
PTQPTVSNKKNN [GPI14 C-terminal 12 aa] gave a protein stability index [1] of 0.7252 ± 0.0055 and a protein stability index (genetic background: wild type) of 0.68 ± 0.022.
With PVHLQTVGLVDC [PIR5 C-terminal 12 aa] the protein stability index [1] was 0.623 ± 0.032 and the protein stability index (genetic background: wild type) was 0.672 ± 0.058.
PYKSTELRSVAN [YDL187C C-terminal 12 aa] was tested, and the protein stability index [1] was 0.671 ± 0.04 and the protein stability index (genetic background: wild type) was 0.742 ± 0.048.
Sequence “QAKFFYQDLMSL [YHL046W-A C-terminal 12 aa]” has a protein stability index [1] of 0.72 ± 0.038 and a protein stability index (genetic background: wild type) of 0.739 ± 0.052.
QAQLTAATNAKQ [PDC5 C-terminal 12 aa] showed a protein stability index [1] of 0.6916 ± 0.0017 and a protein stability index (genetic background: wild type) of 0.731 ± 0.069.
For QDEDEDEDIEMQ [RAD3 C-terminal 12 aa], the protein stability index [1] was 0.6935 ± 0.0052 and the protein stability index (genetic background: wild type) was 0.705 ± 0.057.
Sequence QDYVKDRHHGLK [NUP157 C-terminal 12 aa] has a protein stability index [1] of 0.698 ± 0.01 and a protein stability index (genetic background: wild type) of 0.679 ± 0.043.
QEPVIDPGTVVV [MRPL3 C-terminal 12 aa] was tested, and the protein stability index [1] was 0.6775 ± 0.0024 and the protein stability index (genetic background: wild type) was 0.676 ± 0.011.
For “QEQQNLRQKQPN [YBL029C-A C-terminal 12 aa]”, the protein stability index [1] was 0.704 ± 0.01 and the protein stability index (genetic background: wild type) was 0.7093 ± 0.0059.
For QESTLETTQKED [AFI1 C-terminal 12 aa], the protein stability index [1] was 0.703 ± 0.032 and the protein stability index (genetic background: wild type) was 0.666 ± 0.018.
For QETAISVAKLFK [RPT6 C-terminal 12 aa], the protein stability index [1] was 0.684 ± 0.007 and the protein stability index (genetic background: wild type) was 0.7079 ± 0.007.
QFAQDTLKNFVQ [SAM35 C-terminal 12 aa] showed a protein stability index [1] of 0.733 ± 0.022 and a protein stability index (genetic background: wild type) of 0.713 ± 0.03.
QGRQGFNGGSRW [YNL208W C-terminal 12 aa] gave a protein stability index [1] of 0.706 ± 0.025 and a protein stability index (genetic background: wild type) of 0.681 ± 0.028.
QKARDFSRSVVH [ARO2 C-terminal 12 aa] showed a protein stability index [1] of 0.696 ± 0.00098 and a protein stability index (genetic background: wild type) of 0.698 ± 0.021.
Work on QKTAQQKNCSIM [YNL234W C-terminal 12 aa] yielded a protein stability index [1] of 0.746 ± 0.018 and a protein stability index (genetic background: wild type) of 0.721 ± 0.019.
With QLAIALSLSEIN [UFO1 C-terminal 12 aa] the protein stability index [1] was 0.694 ± 0.011 and the protein stability index (genetic background: wild type) was 0.714 ± 0.035.
QLISTPIKDNEH [KIC1 C-terminal 12 aa] showed a protein stability index [1] of 0.693 ± 0.018 and a protein stability index (genetic background: wild type) of 0.682 ± 0.031.
For QLKLLNALDSVD [YDR537C C-terminal 12 aa], the protein stability index [1] was 0.696 ± 0.011 and the protein stability index (genetic background: wild type) was 0.757 ± 0.069.
QLLNDSPLEDKF [FBP26 C-terminal 12 aa] was tested, and the protein stability index [1] was 0.711 ± 0.026 and the protein stability index (genetic background: wild type) was 0.7 ± 0.026.
Work on QLMYEQDDEEVP [HAP3 C-terminal 12 aa] yielded a protein stability index [1] of 0.718 ± 0.015 and a protein stability index (genetic background: wild type) of 0.64582 ± 0.00022.
For QNARAAFKSTLV [YDR514C C-terminal 12 aa], the protein stability index [1] was 0.707 ± 0.012 and the protein stability index (genetic background: wild type) was 0.698 ± 0.044.
QPSSASCLFILI [AHT1 C-terminal 12 aa] showed a protein stability index [1] of 0.716 ± 0.023 and a protein stability index (genetic background: wild type) of 0.696 ± 0.055.
Sequence QQFYKDVYAMQD [THI2 C-terminal 12 aa] has a protein stability index [1] of 0.74 ± 0.018 and a protein stability index (genetic background: wild type) of 0.6413 ± 0.001.
QSLPPTLKVNRL [RPL38 C-terminal 12 aa] showed a protein stability index [1] of 0.672 ± 0.012 and a protein stability index (genetic background: wild type) of 0.65859 ± 0.00042.
With QTAISMNDEDDA [GVP36 C-terminal 12 aa] the protein stability index [1] was 0.712 ± 0.013 and the protein stability index (genetic background: wild type) was 0.7006 ± 0.0018.
With QTLDSEYNTILQ [GAT2 C-terminal 12 aa] the protein stability index [1] was 0.704 ± 0.024 and the protein stability index (genetic background: wild type) was 0.742 ± 0.073.
With “QTSGTFLHFSRP [YEL075W-A C-terminal 12 aa]” the protein stability index [1] was 0.712 ± 0.01 and the protein stability index (genetic background: wild type) was 0.718 ± 0.062.
QTSKGPENLQFS [RAD53 C-terminal 12 aa] showed a protein stability index [1] of 0.71 ± 0.05 and a protein stability index (genetic background: wild type) of 0.723 ± 0.018.
